We go through three molecules from US20260242735A1 (UNIVERSIT T BASEL, published 2026).

Common to all, as to test: alanine scan, flow cytometry, HEK293-T;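 also: antibody binding to each alanine-substituted CD33 mutant expressed transiently in HEK293-T, read as fluorescence minus background, mean of duplicates, relative to wild-type CD33 set as 100%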
A general note: A flow cytometer gives signals particle by particle.

Test [1] has as its target human CD33 A183S (human, UniProt P20138 18-364).
The target in test [2] is human CD33 V231A (human, UniProt P20138 18-364).
In test [3] the target is human CD33 W179A (human, UniProt P20138 18-364).
For test [4], the target named is human CD33 L180A (human, UniProt P20138 18-364).
Test [5] concerns the target human CD33 T185A (human, UniProt P20138 18-364).
Test [6] has as its target human CD33 R202A (human, UniProt P20138 18-364).
Test [7] addresses human CD33 P203A (human, UniProt P20138 18-364).
Test [8] deals with human CD33 Q171A (human, UniProt P20138 18-364).
Test [9] deals with human CD33 P235A (human, UniProt P20138 18-364).
For test [10], the target named is human CD33 V214A (human, UniProt P20138 18-364).
Test [11] deals with human CD33 V221A (human, UniProt P20138 18-364).
Test [12] has as its target human CD33 F177A (human, UniProt P20138 18-364).
For test [13], the target named is human CD33 L187A (human, UniProt P20138 18-364).
Test [14] concerns the target human CD33 P174A (human, UniProt P20138 18-364).
Test [15] has as its target human CD33 P189A (human, UniProt P20138 18-364).
In test [16] the target is human CD33 G218A (human, UniProt P20138 18-364).
Test [17] addresses human CD33 K215A (human, UniProt P20138 18-364).
Test [18] deals with human CD33 N237A (human, UniProt P20138 18-364).
For test [19], the target named is human CD33 S194A (human, UniProt P20138 18-364).
Chain of human CD33 S194A (P20138 18-364 S194A limits assumed): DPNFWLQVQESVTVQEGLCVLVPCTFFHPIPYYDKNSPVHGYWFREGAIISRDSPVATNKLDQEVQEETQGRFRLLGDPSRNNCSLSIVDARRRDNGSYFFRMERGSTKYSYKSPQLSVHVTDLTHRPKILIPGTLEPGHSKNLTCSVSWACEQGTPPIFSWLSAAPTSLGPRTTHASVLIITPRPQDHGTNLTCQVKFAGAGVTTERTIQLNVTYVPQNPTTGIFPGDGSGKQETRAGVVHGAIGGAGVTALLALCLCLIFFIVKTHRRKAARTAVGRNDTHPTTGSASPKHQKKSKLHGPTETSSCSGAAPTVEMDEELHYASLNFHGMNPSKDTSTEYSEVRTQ

Chain of human CD33 V221A (P20138 18-364 V221A limits assumed): as the sequence (P20138 18-364 S194A limits assumed) above, with A177S, V204A counted along it
Chain of human CD33 P174A (P20138 18-364 P174A limits assumed): as the sequence (P20138 18-364 S194A limits assumed) above, with P157A, A177S counted along it
Chain of human CD33 V231A (P20138 18-364 V231A limits assumed): as the sequence (P20138 18-364 S194A limits assumed) above, with A177S, V214A counted along it
Chain of human CD33 P203A (P20138 18-364 P203A limits assumed): as the sequence (P20138 18-364 S194A limits assumed) above, with A177S, P186A counted along it
Chain of human CD33 F177A (P20138 18-364 F177A limits assumed): as the sequence (P20138 18-364 S194A limits assumed) above, with F160A, A177S counted along it
Chain of human CD33 W179A (P20138 18-364 W179A limits assumed): as the sequence (P20138 18-364 S194A limits assumed) above, with W162A, A177S counted along it
Chain of human CD33 L187A (P20138 18-364 L187A limits assumed): as the sequence (P20138 18-364 S194A limits assumed) above, with L170A, A177S counted along it
Chain of human CD33 N237A (P20138 18-364 N237A limits assumed): as the sequence (P20138 18-364 S194A limits assumed) above, with A177S, N220A counted along it
Chain of human CD33 A183S (P20138 18-364 A183S limits assumed): as the sequence (P20138 18-364 S194A limits assumed) above, with A166S, A177S counted along it
Chain of human CD33 T185A (P20138 18-364 T185A limits assumed): as the sequence (P20138 18-364 S194A limits assumed) above, with T168A, A177S counted along it
Chain of human CD33 P189A (P20138 18-364 P189A limits assumed): as the sequence (P20138 18-364 S194A limits assumed) above, with P172A, A177S counted along it
Chain of human CD33 L180A (P20138 18-364 L180A limits assumed): as the sequence (P20138 18-364 S194A limits assumed) above, with L163A, A177S counted along it
Chain of human CD33 V214A (P20138 18-364 V214A limits assumed): as the sequence (P20138 18-364 S194A limits assumed) above, with A177S, V197A counted along it
Chain of human CD33 R202A (P20138 18-364 R202A limits assumed): as the sequence (P20138 18-364 S194A limits assumed) above, with A177S, R185A counted along it
Chain of human CD33 K215A (P20138 18-364 K215A limits assumed): as the sequence (P20138 18-364 S194A limits assumed) above, with A177S, K198A counted along it
Chain of human CD33 P235A (P20138 18-364 P235A limits assumed): as the sequence (P20138 18-364 S194A limits assumed) above, with A177S, P218A counted along it
Chain of human CD33 G218A (P20138 18-364 G218A limits assumed): as the sequence (P20138 18-364 S194A limits assumed) above, with A177S, G201A counted along it
Chain of human CD33 Q171A (P20138 18-364 Q171A limits assumed): as the sequence (P20138 18-364 S194A limits assumed) above, with Q154A, A177S counted along it

B1: Refmab #2 (antibody, V domains shown)
VH: QVQLVQSGAEVKKPGSSVKVSCKASGGTFSDYAISWVRQAPGQGLEWMGRIIPILGVADYAQKFQGRVTITADKSTRTAYMELSSLRSEDTAVYYCARNWADAFDIWGQGTMVTVSS
VL: DIQLTQSPSSLSASVGDRVTITCRASQGISSVLAWYQQKPGKAPKLLIYDASSLESGVPSRFSGSGSGTDFTLTISSLQPEDFATYYCQQFDSSITFGQGTKLEIK
notes: In the alanine scan antibodies were used as IgG or Fab
For B1, the “Mean % WT Binding” value in [1] was 119%; in test [2], 112%; in [3] it was 113%; in [4], 118%; in test [5], 118%; in test [6], 112%. Also, the “Mean % WT Binding” value amounted to 109% in test [7]; 90% in [8]; 108% in test [9]; 118% in test [10]; 92.3% in test [11]; 67.5% in [12]. In addition, the “Mean % WT Binding” value amounted to 144% in test [13]; 117% in test [14]; 116% in [15]; 124% in [16]; 98.4% in [17]; 112% in test [18]. Besides, in [19], the “Mean % WT Binding” value came out at 112%.

B2: Refmab #3 (antibody, V domains shown)
VH: QVQLVQSGAEVKKPGSSVKVSCKASGYTFTDYNMHWVRQAPGQGLEWIGYIYPYNGGTGYNQKFKSKATITADESTNTAYMELSSLRSEDTAVYYCARGRPAMDYWGQGTLVTVSS
VL: DIQMTQSPSSLSASVGDRVTITCRASESVDNYGISFMNWFQQKPGKAPKLLIYAASNQGSGVPSRFSGSGSGTDFTLTISSLQPDDFATYYCQQSKEVPWTFGQGTKVEIK
notes: as for B1
With B2, the “Mean % WT Binding” value in test [1] came out at 117%; in test [2], 153%; in [3], 103%; in test [4], 102%; in test [5], 105%; in [6], 128%. Also, the “Mean % WT Binding” value in test [7] was 105%; in test [8] it was 138%; in test [9], 120%; in [10], 102%; in [11], 89%; in [12], 60.4%. Further, the “Mean % WT Binding” value in test [13] came out at 95.5%; in [14], 110%; in test [15], 95.5%; in [16], 143%; in [17] it was 79.8%; in test [18], 85.6%. Further, in test [19], the “Mean % WT Binding” value stood at 101%.

B3: Refmab #1 (antibody, V domains shown)
VH: EVQLVQSGAEVKKPGSSVKVSCKASGYTITDSNIHWVRQAPGQSLEWIGYIYPYNGGTDYNQKFKNRATLTVDNPTNTAYMELSSLRSEDTAFYYCVNGNPWLAYWGQGTLVTVSS
VL: DIQLTQSPSTLSASVGDRVTITCRASESLDNYGIRFLTWFQQKPGKAPKLLMYAASNQGSGVPSRFSGSGSGTEFTLTISSLQPDDFATYYCQQTKEVPWSFGQGTKVEVK
notes: In the alanine scan antibodies were used as IgG or Fab; also called hP67.6
As for B3, the “Mean % WT Binding” value came to 85.4% in test [1]; 100% in test [2]; 93.5% in test [3]; 91.3% in test [4]; 92.3% in test [5]; 86.7% in test [6]. The “Mean % WT Binding” value in [7] came out at 103%; in test [8], 90.8%; in [9], 81.4%; in test [10], 80.5%; in test [11], 91.9%; in [12], 68.4%. For the same molecule, the “Mean % WT Binding” value in [13] came to 92.3%; in test [14], 90.9%; in test [15] it was 89.2%; in test [16], 79.2%; in test [17], 84.5%; in test [18], 98.7%. In addition, the “Mean % WT Binding” value in test [19] worked out at 93.7%.
